From paper PMC9817892

What was measured:
p63 [1] = molecular target: p63 (UniProt Q9H3D4); test: co-immunoprecipitation, Western blot; details: reference: Nur77 wild type; sites S351
p63 [2] = molecular target: p63 (UniProt Q9H3D4); test: co-immunoprecipitation from metastatic tissue; details: reference: Nur77 wild type; sites S351

## Nur77 (from UniProt P22736) Nur77 S351A
p63 [1]
  binding against the reference: lost
p63 [2]
  binding against the reference: weaker
